Laboratory results from article doi:10.1101/2024.07.24.604955.

Target: zebrafish Ctla-4, HA-tagged (pCDNA3.1-HA-Ctla-4) (zebrafish)
Experiment: Western blot under non-reducing and reducing conditions

Substance “zebrafish Ctla-4, HA-tagged (pCDNA3.1-HA-Ctla-4) (receptor)” has a stoichiometry N of 2.
